According to patent publication US10736933B2, “Peptide-induced NK cell activation” (priority 2015, dated 2020):

What was measured:
HLA-Cw*0102 [1] = target: T1, HLA-Cw*0102 (Homo sapiens, UniProt P10321, A176E/A330V/A35S/A97T/C350S/D114A/D33F/L171W/L180R/L218V/M285V/M309V/M331V/P208H/Q277E/Q291P/R121W/R243W/R30K/S123C/S140Y/S297R/T329A/T363A/V272M/V319A); test: Peptide binding to HLA-Cw*0102 on L721.174 cells (cell surface MHC class I, flow cytometry); type: cell-based; settings: increasing concentrations of peptide, overnight at 26° C.
Description: (§1) The HLA-Cw*0102-positive cell line L721.174 was incubated with increasing concentrations of the LNPSVAATL (SEQ ID NO: 5) peptide or a control peptide VAPWNSLSL (SEQ ID NO: 11). Cells were stained for cell surface of MHC class I and analysed by flow cytometry. The mean fluorescence intensity of cell surface MHC Class I was plotted against the peptide concentration.
as §1, with “HLA-Cw*0102 • positive” for “HLA-Cw*0102-positive”, “peptides IVDLMCHATF” for “LNPSVAATL”, “1); VIDAMCHATL (SEQ ID NO: 2); AANVMAASL (SEQ ID NO: 3); and FLSDVPVATL (SEQ ID NO: 4)” for “5) peptide”, “[…].” for “VAPWNSLSL (SEQ ID NO: 11).”
3×10^5 cells were used per condition. Following washing in PBS the cells were stained for cell surface of MHC class I and analysed by flow cytometry. The mean fluorescence intensity of cell surface MHC Class I was plotted against the peptide concentration.
With reference to FIG. 12, the HLA-Cw*0102-positive cell line L721.174 was incubated with increasing concentrations of the peptides IVDLMCHATF (SEQ ID NO: 1), VIDAMCHATL (SEQ ID NO: 2), AANVMAASL (SEQ ID NO: 3); and FLSDVPVATL (SEQ ID NO: 4) overnight at 26° C. 3×10^5 cells were used per condition. Following washing in PBS the cells were stained for cell surface of MHC class I and analysed by flow cytometry. The mean fluorescence intensity of cell surface MHC Class I was plotted against the peptide concentration.

KIR2DS2 = target: T2, KIR2DS2 (Homo sapiens, UniProt P43631); test: KIR2DS2 tetramer (KIR2DS2-PE) staining of peptide-loaded L721.174 cells; type: binding; settings: L721.174 cells incubated overnight at 26° C. with peptide, flow cytometry
T2 construct: made in house
T2 sequence (P43631 22-245 limits assumed): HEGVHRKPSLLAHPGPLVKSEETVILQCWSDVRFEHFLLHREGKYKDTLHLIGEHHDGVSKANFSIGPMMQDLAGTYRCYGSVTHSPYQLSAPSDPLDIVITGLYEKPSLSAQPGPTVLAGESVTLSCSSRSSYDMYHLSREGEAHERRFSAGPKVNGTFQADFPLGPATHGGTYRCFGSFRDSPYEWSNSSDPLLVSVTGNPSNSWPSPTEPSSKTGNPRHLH
Description: A. The KIR2DS2 protein was expressed with a biotinylation C-terminal tag. Following biotinylation with the BirA enzyme, the KIR2DS2 protein was incubated with streptavidin-phycoerythrin to form fluorescent KIR2DS2-tetramers (KIR2DS2-PE). L721.174 cells were then incubated with indicated peptides. Cells were then stained with KIR2DS2-PE and analysed by flow cytometry. Shown are histogram plots. The bold numbers represent the mean fluorescent staining intensity of the KIR2DS2-PE staining of the cells in the presence of peptide and the non-bold numbers the staining in the absence of peptide. B. Represents the mean and standard error fluorescent intensities of the experiment in “A” following replicate experiments.
A. L721.174 cells were incubated with indicated peptides. Cells were then stained with KIR2DS2-PE (see FIG. 4) and analysed by flow cytometry. Shown are histogram plots. The bold numbers represent the mean fluorescent staining intensity of the KIR2DS2-PE staining of the cells in the presence of peptide and the non-bold numbers the staining in the absence of peptide. B. Represents the mean and standard error fluorescent intensities of the experiment in “A” following replicate experiments.
FIG. 13—KIR2DS2 tetramer staining on 174 cells with and without peptides. Peptides tested include IVDLMCHATF (SEQ ID NO: 1); VIDAMCHATL (SEQ ID NO: 2); AANVMAASL (SEQ ID NO: 3); and FLSDVPVATL (SEQ ID NO: 4). A negative control peptide VAPWNSFAL (SEQ ID NO: 12) and positive control peptide LNPSVAATL (SEQ ID NO: 5) were included. The mean fluorescence intensity of the KIR2DS2 tetramer staining is shown in the right hand corner of the graph.
With reference to FIG. 4A, the KIR2DS2 protein was expressed as a recombinant protein with a biotinylation C-terminal tag. Following biotinylation with the BirA enzyme, the KIR2DS2 protein was incubated with streptavidin-phycoerythrin to form fluorescent KIR2DS2-tetramers (KIR2DS2-PE). 3×10^5 L721.174 cells were then incubated overnight at 26° C. with indicated peptides at a concentration of […]. Cells were then stained with KIR2DS2-PE and analysed by flow cytometry. Shown are histogram plots. The bold numbers represent the mean fluorescent staining intensity of the KIR2DS2-PE staining of the cells in the presence of peptide and the non-bold numbers the staining in the absence of peptide. With reference to FIG. 4B, panel B represents the mean and standard error fluorescent intensities of the experiment in “A” following replicate experiments.
With reference to FIG. 5A, 3×10^5 L721.174 cells were incubated overnight at 26° C. with indicated peptides at a concentration of 200 μM. Cells were then stained with KIR2DS2-PE (see FIG. 4) and analysed by flow cytometry. Shown are histogram plots. The bold numbers represent the mean fluorescent staining intensity of the KIR2DS2-PE staining of the cells in the presence of peptide and the non-bold numbers the staining in the absence of peptide. With reference to FIG. 5B, panel B represents the mean and standard error fluorescent intensities of the experiment in “A” following replicate experiments.
With reference to FIG. 13, the KIR2DS2 protein was expressed as a recombinant protein with a biotinylation C-terminal tag. Following biotinylation with the BirA enzyme, the KIR2DS2 protein was incubated with streptavidin-phycoerythrin to form fluorescent KIR2DS2-tetramers (KIR2DS2-PE). […] Cells were then stained with KIR2DS2-PE and analysed by flow cytometry. […]

[2] = tested on: NKL cell line transfected with KIR2DS2; test: Vav1 phosphorylation (pVav1 Western blot) in NKL cells transfected with KIR2DS2; type: cell-based; settings: HLA-C*0304:ICP47:721.221 cells loaded with peptide; 5 minutes
Description: A. L721.174 cells were incubated with indicated peptides. The cells were then incubated with the NK cell line transfected with KIR2DS2. The cells were lysed and the KIR2DS2 was then immunoprecipitated from the mixture using the GL183 antibody coupled to protein-G beads. The immune precipitate was analysed by Western blotting using a phosphotyrosine antibody. The membrane was then stripped and reprobed with an antibody to DAP12 the molecule that transduces a positive signal from KIR2DS2. Shown are the regions on the blots at the level of DAP12 (12-15 kDa). B. L721.174 cells were incubated with indicated peptides. The cells were then incubated with the NK cell line transfected with KIR2DS2 or transfected with KIR2DL2. The cells were lysed in 1% NP-40 and then analysed by Western blotting using antibodies to pVav1 and then following stripping of the membrane to Vav1. Shown are Western blots around the 98 kDa region, and below them the corresponding densitometries for 3 independent experiments.
FIG. 7 1×10^6 L721.221-HLA-C*0304-ICP47 cells were incubated overnight at 26° C. with indicated peptides at a concentration of […]. The cells were then incubated with the NKL cell line transfected with KIR2DS2 or transfected with KIR2DL2 for 5 minutes. The cells were lysed in 1% NP-40 and then analysed by Western blotting using antibodies to pVav1 and then following stripping of the membrane to Vav1. Shown are Western blots around the 98 kDa region, and below them the corresponding densitometries for 2 independent experiments.
FIG. 14—The Dengue virus peptide IVDLMCHATF (SEQ ID NO: 1) activates KIR2DS2 positive NK cells. 174 cells were incubated with the IVDLMCHATF (SEQ ID NO: 1) and then KIR2DS2-positive transfected NKL cells or KIR2DL2-positve transfected NKL cells. Activation of NK cells was assessed by western blotting for phosphorylated Vav1, and compared to total Vav1.
With reference to FIG. 6A, 1×10^6 L721.174 cells were incubated overnight at 26° C. with indicated peptides at a concentration of […]. The cells were then incubated with the NK cell line transfected with KIR2DS2 for 5 minutes. The cells were lysed in 1% digitonin buffer and the KIR2DS2 was then immunoprecipitated from the mixture using the GL183 antibody coupled to protein-G beads. The immune precipitate was analysed by Western blotting using a phosphotyrosine antibody. […] The cells were lysed in 1% NP-40 and then analysed by Western blotting using antibodies to pVav1 and then following stripping of the membrane to Vav1. […]
With reference to FIG. 7, 1×10^6 HLA-C*0304:ICP47:721.221 cells were incubated overnight at 26° C. with indicated peptides at a concentration of […]. […] The cells were lysed in 1% NP-40 and then analysed by Western blotting using antibodies to pVav1 and then following stripping of the membrane to Vav1. […]

[3] = tested on: KIR2DS2-positive NK cells; test: CD107a degranulation of NK cells from KIR2DS2-positive donors cultured with peptide-loaded L721.174 cells; type: cell-based; settings: KIR2DS2-positive donor, CH-L antibody positive NK cells, four hours, compared to no peptide
Description: (§2) A. cells were incubated in the presence or absence of peptides, and then cultured with NK cells from either a KIR2DS2-positive or KIR2DS2-negative donor. The level of CD107a (LAMP) expression was measured on NK cells positive for the CH-L antibody. This antibody binds to KIR2DS2, KIR2DL2 and KIR2DL3. B. Summary data from 5 KIR2DS2-positive and 6 KIR2DS2 • negative donors tested as per panel A of FIG. 2. To compare the different donors the data are normalized to 100% for the no peptide condition.
(§3) With reference to FIG. 2A, 3×10^5 L721.174 cells were incubated at 26° C. overnight in the presence or absence of peptides, and then cultured for four hours with NK cells from either a KIR2DS2-positive or KIR2DS2-negative donor. The level of CD107a (LAMP) expression was measured on NK cells positive for the CH-L antibody. This antibody binds to KIR2DS2, KIR2DL2 and KIR2DL3. […] With reference to FIG. 2B, summary data from 5 KIR2DS2-positive and 6 KIR2DS2 • negative donors were tested as per panel A of FIG. 2. To compare the different donors the data are normalized to 100% for the no peptide condition.

[4] = tested on: KIR2DS2-negative donor NK cells; test: CD107a degranulation of NK cells from KIR2DS2-negative donors cultured with peptide-loaded L721.174 cells; type: cell-based; settings: CH-L antibody positive NK cells, four hours, compared to no peptide
Description: as §2, §3

HLA-Cw*0102 [5] = target: T1, HLA-Cw*0102; settings: control peptide, known binder; cited from earlier work

Sequence: AANVMAASL
- binding to HLA-Cw*0102 (mean fluorescence intensity of cell surface MHC Class I) (HLA-Cw*0102 [1]): bind HLA-Cw*0102
- KIR2DS2-PE tetramer binding to HLA-C*0102 and peptide (KIR2DS2): KIR2DS2 BINDS

Sequence: FLSDVPVATL
- binding to HLA-Cw*0102 (mean fluorescence intensity of cell surface MHC Class I) (HLA-Cw*0102 [1]): bind HLA-Cw*0102
- KIR2DS2-PE tetramer binding to HLA-C*0102 and peptide (KIR2DS2): KIR2DS2 BINDS

Sequence: GAVPDLATL
- activation of KIR2DS2 (pVav1 vs Vav1) [2]: KIR2DS2 IS ACTIVATED

Sequence: GAVPDLAWL
- activation of KIR2DS2 (pVav1 vs Vav1) [2]: KIR2DS2 IS ACTIVATED

Sequence: VAPWNSFAL [VAP-FA, negative control peptide, reference compound]
- level of CD107a (LAMP) degranulation [3]: lower levels of degranulation
- level of CD107a (LAMP) degranulation [4]: lower levels of degranulation

Sequence: VAPWNSLSL
- binding to HLA-Cw*0102 (HLA-Cw*0102 [5]): known to bind HLA-Cw*0102

Sequence: VIDAMCHATL
- binding to HLA-Cw*0102 (mean fluorescence intensity of cell surface MHC Class I) (HLA-Cw*0102 [1]): bind HLA-Cw*0102
- KIR2DS2-PE tetramer binding to HLA-C*0102 and peptide (KIR2DS2): KIR2DS2 BINDS
